Columns and labels:
[1] = molecular target: cytoplasmic domain of Salmonella enterica serovar Typhimurium FlhA (FlhA^C) (Salmonella enterica serovar Typhimurium ST313) (UniProt P40729); assay: ITC; FlhA^C and variants (0.1–0.2 mM) in the cell, FliT-FliD, FliS-FliC and variants (1.0–2.0 mM) in the syringe; 25 °C; 50 mM NaPi pH 6.8, 300 mM NaCl, 0.05% NaN3; one-site binding model
[2] = molecular target: cytoplasmic domain of Salmonella enterica serovar Typhimurium FlhA (FlhA^C) (UniProt P40729); assay: ITC; details: read off a plot
[3] = molecular target: fused FliS−FliC^C construct (FliC^C fused to the C terminus of FliS) (UniProt P06179); assay: ITC; details: read off a plot

Row | Substance | Kd [1] | ratio to parent [2] | other results
1 | fused FliS−FliC^C construct (FliC^C fused to the C terminus of FliS) (from UniProt P06179 454-495) | 10 µM | – | –
2 | fused FliT−FliD^C construct (FliD^C fused to the N terminus of FliT) (from UniProt P16328) R98D | – | 4.5 fold | –
3 | fused FliT−FliD^C construct (FliD^C fused to the N terminus of FliT) (from UniProt P16328) | 20 µM | – | –
4 | fused FliT−FliD^C construct (FliD^C fused to the N terminus of FliT) (from UniProt P16328) I93D | – | 3.3 fold | –
5 | cytoplasmic domain of Salmonella enterica serovar Typhimurium FlhA (FlhA^C) (from UniProt P40729) L476A | – | – | ratio to parent [3]: 8 fold

Source: article PMC5932034
